# Reference: the supplement of paper PMC9233669
# Variants at the floor of the assay were thinned out.
# System: biotinyl-Phe-oxazolone
# Assay: self-aminoacylation, catalytic enhancement (BFO) (fold over background); higher = more active; k-Seq, kA / k0A0; sequences stand for … in GGGAAUGGAUCCACAUCUACGAAUUC…UUCACUGCAGACUUGACGAAGCUG
# Summary of the method: (§1)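 The uncatalyzed rate is the low-activity peak of a bimodal Gaussian fit, and catalytic enhancement is median kA divided by it. The kA values came from pseudo-first-order fits, with 1000 bootstraps, of per-sequence fraction reacted measured by streptavidin capture, triplicate qPCR and Illumina sequencing. Mutagenized RNA pools with a 21-nt variable region (0.43 μM) were reacted with each biotinyl-aminoacyl-oxazolone at 2–1250 μM in 50 μL HEPES/NaCl/KCl/MgCl2/CaCl2 buffer with 5% acetonitrile, pH 6.9–7.0, for 90 minutes at room temperature.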
row,Sequence,self-aminoacylation
1,AAAUUUGCUAAUAGUCGGAAG [Fam3.1 aminoacylation ribozyme variant],2.57
2,AAGAUUGCUAACAGUCGCAAG [Fam3.1 aminoacylation ribozyme variant],2.49
3,AAGAUUGCUAAUAGUCGCAAC [Fam3.1 aminoacylation ribozyme variant],2.08
4,AAGAUUGCUGAUAGUCGCAAG [Fam3.1 aminoacylation ribozyme variant],2.57
5,AAGUCUGCUAAUAGUCGCAAA [Fam3.1 aminoacylation ribozyme variant],2.14
6,AAGUGUGCUAAUAGUGGCAAG [Fam3.1 aminoacylation ribozyme variant],2.86
7,AAGUUAGCUAAUAGUCGCUAG [Fam3.1 aminoacylation ribozyme variant],2.36
8,AAGUUAGUUAAUAGUCGCAAG [Fam3.1 aminoacylation ribozyme variant],2.7
9,AAGUUGGCUAAUAGUCCCAAG [Fam3.1 aminoacylation ribozyme variant],2.06
10,AAGUUUCAUAAUAGUCGCAAG [Fam3.1 aminoacylation ribozyme variant],2.19
11,AAGUUUCCUAAUAGUCGCCAG [Fam3.1 aminoacylation ribozyme variant],2.94
12,AAGUUUCCUACUAGUCGCAAG [Fam3.1 aminoacylation ribozyme variant],2.54
13,AAGUUUCCUUAUAGUCGCAAG [Fam3.1 aminoacylation ribozyme variant],2.75
14,AAGUUUGAUAAUAGUCGCAAU [Fam3.1 aminoacylation ribozyme variant],2.12
15,AAGUUUGCGAAUAGCCGCAAG [Fam3.1 aminoacylation ribozyme variant],4.03
16,AAGUUUGCGAAUAGGCGCAAG [Fam3.1 aminoacylation ribozyme variant],9.76
17,AAGUUUGCUAACAGUCGGAAG [Fam3.1 aminoacylation ribozyme variant],6.87
18,AAGUUUGCUAAUAGCCGCAAU [Fam3.1 aminoacylation ribozyme variant],2.22
19,AAGUUUGCUAAUAGUCAAAAG [Fam3.1 aminoacylation ribozyme variant],3.26
20,AAGUUUGCUAAUAGUUGCGAG [Fam3.1 aminoacylation ribozyme variant],2.61
21,AAGUUUGCUAAUGGUCGCAAU [Fam3.1 aminoacylation ribozyme variant],3.15
22,AAGUUUGCUGAUAGUCGCAGG [Fam3.1 aminoacylation ribozyme variant],2.42

row,Sequence,self-aminoacylation
1,AAGUUUGGUAAUAGUCGCGAG [Fam3.1 aminoacylation ribozyme variant],2.51
2,AAGUUUGUUCAUAGUCGCAAG [Fam3.1 aminoacylation ribozyme variant],2.01
3,AAGUUUUCAAAUAGUCGCAAG [Fam3.1 aminoacylation ribozyme variant],2.08
4,AAGUUUUCUAAUAGUCGAAAG [Fam3.1 aminoacylation ribozyme variant],2
5,AAGUUUUCUAAUAGUCGCUAG [Fam3.1 aminoacylation ribozyme variant],2.43
6,AAGUUUUCUAAUAGUCGUAAG [Fam3.1 aminoacylation ribozyme variant],2.29
7,AAGUUUUCUAAUAGUUGCAAG [Fam3.1 aminoacylation ribozyme variant],2.94
8,AAUCACCUAGGUCAUCGUGUG [Fam2.2 aminoacylation ribozyme variant],5.37
9,AAUUUUGCUAAUAAUCGCAAG [Fam3.1 aminoacylation ribozyme variant],2.03
10,ACGUUUGCUAAUAGUCCCAAG [Fam3.1 aminoacylation ribozyme variant],2
11,AGUACCCUGGUCAUCGAGUGC [Fam2.1 aminoacylation ribozyme variant],2.36
12,AUGCACCUAGGUCAUCGGGUC [Fam2.2 aminoacylation ribozyme variant],7.15
13,AUGUUUGCGAAUAGUCGCAAG [Fam3.1 aminoacylation ribozyme variant],2.47
14,AUGUUUGUUAAUAGUCGCAAG [Fam3.1 aminoacylation ribozyme variant],2.31
15,AUUACCCUGGCCAUCGACUGA [Fam2.1 aminoacylation ribozyme variant],2.83
16,AUUACCCUGGUCAUCAAGUGU [Fam2.1 aminoacylation ribozyme variant],2.34
17,AUUAGCUUGGUCAUCGAGUGA [Fam2.1 aminoacylation ribozyme variant],2.2
18,AUUCACCAAGGUCAUCGGGUC [Fam2.2 aminoacylation ribozyme variant],3.27
19,AUUCACCUAGGUCAUCAUGUG [Fam2.2 aminoacylation ribozyme variant],2.12
20,AUUCACCUAGGUCGUCGGGUU [Fam2.2 aminoacylation ribozyme variant],3.1
21,AUUCACCUAGGUUAUCGUGUG [Fam2.2 aminoacylation ribozyme variant],2.6
22,AUUCACCUCGGUCAUCGUGUG [Fam2.2 aminoacylation ribozyme variant],3.14

row,Sequence,self-aminoacylation
1,AUUCACCUGGGUCAUCGGGUC [Fam2.2 aminoacylation ribozyme variant],5.84
2,AUUCACCUGGGUCAUCGUGUG [Fam2.2 aminoacylation ribozyme variant],4.81
3,AUUCUCCUAGGUCAUCGGUUG [Fam2.2 aminoacylation ribozyme variant],6.63
4,AUUGCCCUGGUCGUCGAGUGA [Fam2.1 aminoacylation ribozyme variant],8.62
5,AUUUACCUAGGUCAUCGGCUG [Fam2.2 aminoacylation ribozyme variant],2.16
6,CAGUUUGCUAAGAGUCGCAAG [Fam3.1 aminoacylation ribozyme variant],2.85
7,CAGUUUGCUAAUAGUCCCAAG [Fam3.1 aminoacylation ribozyme variant],2.32
8,CAGUUUGCUAAUAGUCGCAAC [Fam3.1 aminoacylation ribozyme variant],2.78
9,CAGUUUGCUAAUAGUCGCAGG [Fam3.1 aminoacylation ribozyme variant],3.45
10,CAGUUUUCUAAUAGUCGCAAG [Fam3.1 aminoacylation ribozyme variant],2.91
11,CCAAACUUCGAGCAAUCGGUC [Fam1B.1 aminoacylation ribozyme variant],2.34
12,CUACUCCAAUCAAUCGGUCUG [Fam1A.1 aminoacylation ribozyme variant],2.36
13,CUACUGCAAACACUCGGUCUG [Fam1A.1 aminoacylation ribozyme variant],5.64
14,CUACUUCAAACAAGCGGUCGG [Fam1A.1 aminoacylation ribozyme variant],3.68
15,CUACUUCAAACCAUCGGUCGG [Fam1A.1 aminoacylation ribozyme variant],3.15
16,CUAGUUCAAACAUUCGGUCUG [Fam1A.1 aminoacylation ribozyme variant],6.01
17,CUAGUUCAGACAAUCGGUCUG [Fam1A.1 aminoacylation ribozyme variant],2.61
18,CUGCUUCAAACAAUCGUUCUG [Fam1A.1 aminoacylation ribozyme variant],2.08
19,GAGUUUGCUGAUAGUCGCAAG [Fam3.1 aminoacylation ribozyme variant],3.71
20,GUUACCCUGGUCAUCGAUUGA [Fam2.1 aminoacylation ribozyme variant],2.77
21,UUACUUCAAACAAGCGGUCUG [Fam1A.1 aminoacylation ribozyme variant],6.3
22,UUACUUCAAACAUUCGGUCUG [Fam1A.1 aminoacylation ribozyme variant],2.03

# System: biotinyl-Trp-oxazolone
# Assay: self-aminoacylation, catalytic enhancement (BWO) (fold over background); higher = more active; k-Seq, kA / k0A0; sequences stand for … in GGGAAUGGAUCCACAUCUACGAAUUC…UUCACUGCAGACUUGACGAAGCUG
# Summary of the method: as §1
row,Sequence,self-aminoacylation
1,AAGAUUGCUAAUAGUCGCCAG [Fam3.1 aminoacylation ribozyme variant],2.02
2,AAGAUUGCUAAUUGUCGCAAG [Fam3.1 aminoacylation ribozyme variant],3.92
3,AAGUGUGCUAAUAGUCGCAAU [Fam3.1 aminoacylation ribozyme variant],2.01
4,AAGUGUGCUAAUAGUCGCAGG [Fam3.1 aminoacylation ribozyme variant],2.17
5,AAGUGUGCUAAUCGUCGCAAG [Fam3.1 aminoacylation ribozyme variant],2.44
6,AAGUUAGCUAGUAGUCGCAAG [Fam3.1 aminoacylation ribozyme variant],2.01
7,AAGUUAGGUAAUAGUCGCAAG [Fam3.1 aminoacylation ribozyme variant],2.11
8,AAGUUUGCUAUUAGUCGCAGG [Fam3.1 aminoacylation ribozyme variant],2.01
9,AUUACCCGGGUCAUCGAGUUA [Fam2.1 aminoacylation ribozyme variant],2.23
10,AUUACCCUGGUCAUUGAGUAA [Fam2.1 aminoacylation ribozyme variant],2.02
11,CCACACUCCGAGCAAUCGGUC [Fam1B.1 aminoacylation ribozyme variant],2.37
12,CCACACUGCAAGCCAUCGGUC [Fam1B.1 aminoacylation ribozyme variant],2.76
